In patent US10792311B2, “Stimulation of ovarian follicle development and oocyte maturation” (The Board of Trustees of the Leland Stanford Junior …, priority 2011, dated 2020):

Tests used:
[1] = tested on: preantral follicles; assay: Preantral follicle culture; assay type: cell-based, mice; conditions: preantral follicles of day 13 mice, four days
Excerpt: CNP treatment promoted the growth of preantral follicles and cultured ovarian explants: Preantral follicles (125-135 um in diameter) were isolated from ovaries of mice at day 13 of age and treated with different hormones for four days with daily monitoring of follicle diameters. […] In contrast, treatment with ANP was ineffective.
Dissection follicles of different sizes and culturing of preantral follicles: For RT-PCR analyses, early secondary follicles of 90-140 um in diameters were isolated from mice at day 13 of age whereas antral follicles (300-400 um in diameter) were isolated from prepubertal mice at day 23 of age. Preovulatory follicles (500-600 um in diameter) were isolated from prepubertal mice treated with eCG (5 IU). For follicle cultures, preantral follicles (125-145 um in diameter) were isolated from mice at day 13 of age and cultured individually in 96 well plates containing alpha-MEM (100 ul/well) with penicillin and streptomycin together with insulin, transferrin and selenium. […] The media were changed every two days and follicle growth was monitored daily by measuring follicle diameters.

[2] = tested on: ovaries from day 10 mice; assay: Ovarian explant cultures treated with CNP and/or FSH; assay type: cell-based
Procedure: Ovarian explant cultures: Ovaries from day 10 mice were placed on culture plate inserts (Millipore, Bedford, Mass.) and cultured in 400 μl of DMEM/F12 containing 0.1% BSA (Sigma), 0.1% Albumax II, insulin-transferrin-selenium, 0.05 mg/ml L-ascorbic acid and penicillin-streptomycin under the membrane insert to cover ovaries with a thin layer of medium. […] Some explants were also treated with a pan-specific protein kinase G inhibitor, Rp-8-Br-PET-cGMPS (BioLog, Bremen, Germany). At the end of culture, ovaries were fixed in Bouin's solution, paraffin embedded, and cut into continuous sections before staining with hematoxylin and eosin.

[3] = tested on: intestinal stem cell; conditions: 100 μg/adult mice; cited from earlier work
[4] = tested on: canonical Wnt signaling pathway; assay: TCF-luciferase assay in cultured ovarian somatic cells; assay type: cell-based; conditions: somatic cells of day 10 mice; for TCF-luciferase activity: agent alone
Procedure: TCF-luciferase assay: Ovarian somatic cells from day 10 mice were cultured overnight at 37 C in McCoy's 5a medium containing 10% fetal bovine serum (FBS; Gibco) before evaluation of Wnt signaling based on the TCF-luciferase assay. Cells were transfected with 1 μg of pTOP FLASH or pFOP FLASH plasmid together with 0.1 μg of pRL-TK plasmid using lipofectamine 2000 (Invitrogen, Carlsbad, Calif.) for 6 h. […] Luciferase activity expressed as relative light unit was determined using a Dual Luciferase Reporter Assay Kit (Promega) with a luminometer (Bio-Rad).
Luciferase activity was measured as an index of Wnt signaling. […] To estimate the number of viable cells, cells were also cultured with increasing doses of R-spondin2 with or without Wnt3a before measurement of mitochondrial reductase (MTS) activity.

[5] = tested on: somatic cells obtained from day 10 ovaries; assay: Cell proliferation (MTS) assay of ovarian somatic cells; assay type: cell-based, mice; conditions: for MTS activity (viable cell number): agent alone, 2 days
Procedure: Cell proliferation assay: Ovaries obtained from day 10 mice were digested with collagenase I, DNase, and trypsin. After centrifuging at 270×g for 10 min., cell pellet was washed and plated in a 96-well plate (BD Falcon, Franklin Lakes, N.J.) in McCoy's 5a medium (Gibco BRL, Grand Island, N.Y.) containing 4 mg/ml BSA (Sigma Aldrich Chemicals, St. Louis, Mo.), penicillin-streptomycin (Gibco) and sodium pyruvate (Gibco) for 3 h at 37 C. After washing twice with PBS to remove floating oocytes, cells were cultured in serum-free McCoy's 5a medium containing different factors for 48 h. MTS (3-(4,5-dimethylthiazol-2-yl)-5-(3-carboxymethoxyphenyl)-2-(4-sulfophenyl)-2H-tetrazolium) assay was performed using Cell Titer 96 Aqueous One Solution Cell Proliferation Assay (Promega, Madison, Wis.) by adding the substrate for 2 h before measuring absorbance at 490 nm.

[6] = tested on: ovaries from day 10 mice; assay: Ovarian explant cultures treated with R-spondin2 and/or FSH; assay type: cell-based
Procedure: Ovarian explant cultures: Ovaries from day 10 mice were placed on culture plate insert (Millipore, Bedford, Mass.) and cultured in 400 μl of DMEM/F12 (Gibco) containing 0.1% BSA (Sigma), 0.1% Albumax II (Gibco), insulin-transferrin-selenium (Gibco), 0.05 mg/ml L-ascorbic acid (Sigma) and penicillin-streptomycin (Gibco) under the membrane insert to cover ovaries with a thin layer of medium. […] Explants treated with non-immune IgG or boiled (100 C, 15 min) R-spondin2 antibodies served as negative controls. At the end of culture, ovaries were fixed in Bouin's solution, paraffin embedded, and cut into continuous sections before staining with hematoxylin and eosin. Only follicles with clearly stained oocyte nucleus were counted to prevent recounting of the same follicle.

[7] = treatment with R-spondin2 and/or FSH

Molecule: CC[C@H](C)[C@@H]1NC(=O)[C@H](CCCNC(=N)N)NC(=O)[C@H](CC(=O)O)NC(=O)[C@H](CCSC)NC(=O)[C@H](CCCNC(=N)N)NC(=O)CNC(=O)CNC(=O)[C@H](Cc2ccccc2)NC(=O)[C@@H](NC(=O)[C@H](CO)NC(=O)[C@H](CO)NC(=O)[C@H](CCCNC(=N)N)NC(=O)[C@H](CCCNC(=N)N)NC(=O)[C@H](CC(C)C)NC(=O)[C@@H](N)CO)CSSC[C@@H](C(=O)N[C@@H](CC(N)=O)C(=O)N[C@@H](CO)C(=O)N[C@@H](Cc2ccccc2)C(=O)N[C@@H](CCCNC(=N)N)C(=O)N[C@@H](Cc2ccc(O)cc2)C(=O)O)NC(=O)CNC(=O)[C@H](CC(C)C)NC(=O)CNC(=O)[C@H](CO)NC(=O)[C@H](CCC(N)=O)NC(=O)[C@H](C)NC(=O)CNC1=O [ANP, reference compound]
- Follicle size (diameter) [1]: ineffective
- Ovarian weights of explants ([2]; day 10 ovaries, 4 days culture): not

Molecule: O=c1c2nc(Br)n([C@@H]3O[C@@H]4CO[P@@](O)(=S)O[C@H]4[C@H]3O)c2nc2[nH]c(-c3ccccc3)cn12 [Rp-8-Br-PET-cGMPs, Rp-8-Br-PET-cGMPS, reference compound]
- Effect on stimulatory effects of CNP on ovarian weight ([2]; explant culture): blocked the stimulatory effects of CNP
- Effect on effects of a high dose of FSH on ovarian weight ([2]; explant culture, FSH 100 ng/ml): partially suppressed the effects of a high dose of FSH

Molecule: Nc1nc2c(nc(Br)n2[C@@H]2O[C@@H]3COP(=O)(O)O[C@H]3[C@H]2O)c(=O)[nH]1 [8-bromo-cGMP, reference compound]
- Follicle size (diameter) [1]: induced

B1: R-spondin1: secreted glycoprotein of the R-spondin family that synergizes with Wnts to activate β-catenin-dependent signaling (protein, UniProt Q2MKA7 21-263, looked up)
R-spondin-1: SRGIKGKRQRRISAEGSQACAKGCELCSEVNGCLKCSPKLFILLERNDIRQVGVCLPSCPPGYFDARNPDMNKCIKCKIEHCEACFSHNFCTKCKEGLYLHKGRCYPACPEGSSAANGTMECSSPAQCEMSEWSPWGPCSKKQQLCGFRRGSEERTRRVLHAPVGDHAACSDTKETRRCTVRRVPCPEGQKRRKGGQGRRENANRNLARKESKEAGAGSRRRKGQQQQQQQGTVGPLTSAGPA
- Intestinal stem cell proliferation and intestinal growth [3]: stimulate intestinal stem cell proliferation and intestinal growth

B2: R-spondin2: secreted protein that regulates beta-catenin; oocyte-derived paracrine factor; recombinant human R-spondin2 (protein, UniProt Q6UXX9 22-243, looked up)
R-spondin-2: QGNRWRRSKRASYVSNPICKGCLSCSKDNGCSRCQQKLFFFLRREGMRQYGECLHSCPSGYYGHRAPDMNRCARCRIENCDSCFSKDFCTKCKVGFYLHRGRCFDECPDGFAPLEETMECVEGCEVGHWSEWGTCSRNNRTCGFKWGLETRTRQIVKKPVKDTILCPTIAESRRCKMTMRHCPGGKRTPKAKEKRNKKKKRKLIERAQEQHSVFLATDRANQ
- TCF-luciferase activity in the presence of both Wnt3a and R-spondin2 ([4]; 18 h, combined with Wnt3a): synergistic increases
- TCF-luciferase activity ([4]; 18 h): minimal stimulation
- MTS activity (viable cell number) [5]: stimulated MTS activity in a dose-dependent manner
- MTS activity with both Wnt3a and R-Spondin2 ([5]; combined with Wnt3a): further increases in MTS activity
- Ovarian follicle development (morphological analyses) ([6]; 4 days culture): promotion of ovarian follicle development
- Ovarian weight of explants, R-spondin2 and FSH added together ([6]; 4 days culture, combined with FSH): further increases
- Ovarian weight of explants ([6]; day 10 ovaries, 4 days culture): increased ovarian weight in a dose-dependent manner
- Percentage of primordial and degenerated follicles [6, 7]: negligible changes
- Ratio of primary and percentage of secondary follicles [6, 7]: decreased the ratio of primary follicles accompanied by increases in the percentage of secondary follicles

B3: DKK1: Dickkopf1, a Wnt signaling antagonist (protein, UniProt O94907 32-266, looked up)
Dickkopf-related protein 1: TLNSVLNSNAIKNLPPPLGGAAGHPGSAVSAAPGILYPGGNKYQTIDNYQPYPCAEDEECGTDEYCASPTRGGDAGVQICLACRKRRKRCMRHAMCCPGNYCKNGICVSSDQNHFRGEIEETITESFGNDHSTLDGYSRRTTLSSKMYHTKGQEGSVCLRSSDCASGLCCARHFWSKICKPVLKEGQVCTKHRRKGSHGLEIFQRCYCGEGLSCRIQKDHHQASNSSRLHTCQRH
- Effect on R-spondin2- and Wnt3a-stimulated TCF-luciferase activity [4]: blocked the stimulatory effects
- Effect on stimulatory effects of FSH on ovarian growth ([6]; explant cultures): not blocked

B4: Wnt3a: Wnt ligand (protein, UniProt P56704 19-352, looked up)
Protein Wnt-3a: SYPIWWSLAVGPQYSSLGSQPILCASIPGLVPKQLRFCRNYVEIMPSVAEGIKIGIQECQHQFRGRRWNCTTVHDSLAIFGPVLDKATRESAFVHAIASAGVAFAVTRSCAEGTAAICGCSSRHQGSPGKGWKWGGCSEDIEFGGMVSREFADARENRPDARSAMNRHNNEAGRQAIASHMHLKCKCHGLSGSCEVKTCWWSQPDFRAIGDFLKDKYDSASEMVVEKHRESRGWVETLRPRYTYFKVPTERDLVYYEASPNFCEPNPETGSFGTRDRTCNVSSHGIDGCDLLCCGRGHNARAERRREKCRCVFHWCCYVSCQECTRVYDVHTCK
- TCF-luciferase activity ([4]; 18 h): minimal stimulation
- MTS activity (viable cell number) [5]: stimulated MTS activity in a dose-dependent manner
